{"source": "patent US20160146829A1", "key": {"Redbeads [1]": {"target": "Redbeads", "experiment": "flow cytometry of red fluoromagnetic beads specific for alemtuzumab in PBS with 3% BSA, sample at 0 ug/ml (background of the series)"}, "Redbeads [2]": {"target": "Redbeads", "experiment": "flow cytometry of red fluoromagnetic beads specific for alemtuzumab in spiked PBS with 3% BSA; the text words the ug/ml values as concentrations of the beads"}}, "data": [{"substance": "alemtuzumab (antibody)", "values": [{"measurement": "Mean, FL1-H (blank sample at 0.0 ug/ml)", "setting": "Redbeads [1]", "value": 2.11}, {"measurement": "Median, FL1-H (blank sample at 0.0 ug/ml)", "setting": "Redbeads [1]", "value": 1.68}, {"measurement": "Mean, FL1-H (sample at 0.1 ug/ml)", "setting": "Redbeads [2]", "value": 5.69}, {"measurement": "Mean, FL1-H (sample at 0.5 ug/ml)", "setting": "Redbeads [2]", "value": 49.1}, {"measurement": "Mean, FL1-H (sample at 1.0 ug/ml)", "setting": "Redbeads [2]", "value": 94.4}, {"measurement": "Mean, FL1-H (sample at 10 ug/ml)", "setting": "Redbeads [2]", "value": 493}, {"measurement": "Median, FL1-H (sample at 0.1 ug/ml)", "setting": "Redbeads [2]", "value": 5.26}, {"measurement": "Median, FL1-H (sample at 0.5 ug/ml)", "setting": "Redbeads [2]", "value": 36.2}, {"measurement": "Median, FL1-H (sample at 1.0 ug/ml)", "setting": "Redbeads [2]", "value": 74.3}, {"measurement": "Median, FL1-H (sample at 10 ug/ml)", "setting": "Redbeads [2]", "value": 483}]}]}
